Patent US20250289897A1, “LEPTIN RECEPTOR AGONISTIC ANTIBODY AS MONO OR COMBO THERAPIES TO TREAT OBESITY” (ELI LILLY AND COMPANY, priority 2024, published 2025)

Target: T1, mouse-LEPR (Mus musculus, UniProt P48356)
T1 construct: introducing DNA plasmids encoding full-length LEPR of different species and STAT3-luciferase reporter gene into HEK293 cells; expressed in transfected cells; host or cells: HEK293 (HEK293-STAT3Luc-msLepR9)
T1 sequence (P48356 22-1162): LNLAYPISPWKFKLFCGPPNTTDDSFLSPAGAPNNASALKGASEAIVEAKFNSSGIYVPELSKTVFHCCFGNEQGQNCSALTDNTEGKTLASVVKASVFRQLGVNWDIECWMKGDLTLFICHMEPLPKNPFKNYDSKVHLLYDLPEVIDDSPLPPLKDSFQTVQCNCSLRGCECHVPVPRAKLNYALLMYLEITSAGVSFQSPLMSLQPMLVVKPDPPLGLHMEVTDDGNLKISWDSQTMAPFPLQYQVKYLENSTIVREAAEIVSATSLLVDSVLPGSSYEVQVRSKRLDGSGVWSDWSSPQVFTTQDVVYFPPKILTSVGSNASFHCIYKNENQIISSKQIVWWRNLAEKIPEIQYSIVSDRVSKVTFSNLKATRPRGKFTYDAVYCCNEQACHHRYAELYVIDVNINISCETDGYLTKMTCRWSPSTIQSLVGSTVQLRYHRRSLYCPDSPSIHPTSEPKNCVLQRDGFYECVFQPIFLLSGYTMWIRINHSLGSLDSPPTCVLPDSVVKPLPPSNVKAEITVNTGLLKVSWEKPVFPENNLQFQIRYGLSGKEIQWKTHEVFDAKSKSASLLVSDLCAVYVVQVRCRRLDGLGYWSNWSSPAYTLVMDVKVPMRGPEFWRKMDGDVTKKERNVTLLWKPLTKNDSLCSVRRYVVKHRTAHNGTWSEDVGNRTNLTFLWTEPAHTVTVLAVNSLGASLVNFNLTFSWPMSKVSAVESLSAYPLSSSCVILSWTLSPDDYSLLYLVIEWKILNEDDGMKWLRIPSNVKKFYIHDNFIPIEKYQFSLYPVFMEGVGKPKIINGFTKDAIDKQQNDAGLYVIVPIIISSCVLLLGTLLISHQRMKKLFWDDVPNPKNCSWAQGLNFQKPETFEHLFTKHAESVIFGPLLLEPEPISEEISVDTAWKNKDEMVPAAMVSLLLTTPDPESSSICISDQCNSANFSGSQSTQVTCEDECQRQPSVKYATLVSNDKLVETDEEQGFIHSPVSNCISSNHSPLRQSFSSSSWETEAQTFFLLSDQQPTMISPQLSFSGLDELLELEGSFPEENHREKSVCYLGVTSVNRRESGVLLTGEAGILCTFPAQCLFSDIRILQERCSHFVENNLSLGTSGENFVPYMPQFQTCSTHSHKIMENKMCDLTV
Experiment: STAT3-luciferase reporter assay in HEK293-STAT3Luc-msLepR9 cells
Type: cell-based
Text: LEPR is a cell surface single-pass transmembrane receptor. Activation of LEPR leads to phosphorylation of intracellular STAT3 (pSTAT3) and subsequent target gene transcription. To measure LEPR activation by anti-LEPR antibodies in the present disclosure, five independent STAT-luciferase reporter cell lines were established by introducing DNA plasmids encoding full-length LEPR of different species and STAT3-luciferase reporter gene into HEK293 cells (Table 4). […]
Before plating the cells for luciferase assays, the poly-D-Lysine coated 96-well plates (Corning Inc, #354651) were rinsed once with phosphate buffered solution (PBS). […] Cell lysing and One-Glo luciferase substrate solution (Promega, #E6120) were then added to each well, and relative luciferase units (RLUs) were measured on a ClarioStar plate reader. For each reporter cell line, positive control LEPR activation was calculated as the average RLUs stimulated by 20 nM recombinant human leptin protein (SEQ ID NO:27) minus the average RLUs of unstimulated cells and was set as maximum LEPR activation (100%). […]

Substance: human leptin: recombinant human leptin protein (SEQ ID NO:27), positive control
- EC50 (antibodies at concentrations up to 90 nM, read-out: EC50 (nM) ± SEM): 0.0788 ± 0.017 nM
- Agonism (%) ± SEM (vs 20 nM recombinant human leptin, antibodies up to 90 nM): 116.17%
